One assay concerns the target T1, Human CD38-His (human, UniProt P28907 43-300, limits assumed).
T1 construct: Bought antigen; also called human CD38 (SPR antigen); not shown: His tag
Nature of the assay: SPR (BIACORE 3000), capture format, 1:1 Langmuir model. Background: Surface plasmon resonance follows binding to a sensor surface in real time, without labels.

The target in a further assay is T2, human CD38 (human, UniProt P28907 43-300, limits assumed).
T2 construct: also called hCD38; huCD38
Briefly: ELISA, antigen-coated plate. (In general: In an ELISA, binding on a coated surface is turned into a signal by an enzyme label.)

Another assay has as its target T3, cynomolgus monkey CD38 (cynomolgus monkey, UniProt Q5VAN0 44-301, limits assumed).
T3 construct: also called Cyno CD38; cynoCD38
Briefly: ELISA, antigen-coated plate.

For another assay, the target named is T4, Human CD28 (human, UniProt P10747 19-152, limits assumed).
T4 construct: also called hCD28
Nature of the assay: ELISA, antigen-coated plate.

For a further assay, the target named is T5, Human CD3 (human).
T5 chain: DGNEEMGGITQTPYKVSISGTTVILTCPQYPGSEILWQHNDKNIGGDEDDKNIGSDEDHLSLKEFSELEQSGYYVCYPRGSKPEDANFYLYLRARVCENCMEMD
Briefly: ELISA, antigen-coated plate.

Assay [1] addresses T6, human CD38 on tumor cell lines NCI-H929 (CD38+/CD28+) and OCI-LY19 (CD38+/CD28-) (human, UniProt P28907 1-300). Nature of the assay: cell-based or functional assay.
Assay [2] concerns the target T6, human CD38 on tumor cell lines NCI-H929 …. Nature of the assay: cell-based or functional assay. The source holds these as a separate data set.

Method for Human CD28: (§1) Binding affinities to each target antigen by the CD38/CD28×CD3 T cell engagers were measured by ELISA. Briefly, each antigen was used to coat the 96-well Immuno Plate (Thermo Fisher Scientific) overnight at 4° C. using 200 ng/well in PBS (pH7.4) of each antigen. The coated plate was blocked using 5% skim milk+2% BSA in PBS for one hour at RT, followed by washing with PBS+0.25% Tween 20 three times (Aqua Max 400, Molecular Devices). Serial dilution of antibodies (trispecific and control Abs) were prepared and added onto the ELISA plates (100 μl/well in duplicate), incubated at room temperature (RT) for one hour, followed by washing 5 times with PBS+0.25% Tween 20. […] The reaction was terminated by adding 50 μl 1M H₂SO₄, and OD450 was measured using SpectraMax M5 (Molecular Devices) and analyzed using SoftMax Pro6.3 software (Molecular Devices). The final data was transferred to GraphPad Prism software (GraphPad Software, CA, USA), and plotted. EC50 was calculated using the same software.
(§2) The binding affinities of selected CD38/CD28sup×CD3mid_ENLQ DKTHT IgG4 FALA trispecific antibodies with alternative anti-CD38 binding domains for human CD3, human CD28, human CD38 and cynomolgus monkey CD38 were then determined by ELISA as described above.
Method for Human CD38-His: Human CD38-His antigens were used (Cambridge Biologics, Cambridge, Mass.) for full kinetic analysis. Kinetic characterization of purified antibodies was performed using SPR technology on a BIACORE 3000 (GE Healthcare). A capture assay using human IgG1 specific antibody capture and orientation of the investigated antibodies was used. For capture of Fc containing protein constructs the human antibody capture kit (GE Healthcare) was used. For capture of His tagged antigen, anti-His antibody capture kit (GE Healthcare) was used. The capture antibody was immobilized via primary amine groups (11000 RU) on a research grade CM5 chip (GE Life Sciences) using standard procedures. […] Binding kinetics were measured against the trispecific antibodies. Assay buffer HBS EP (10 mM HEPES, pH 7.4, 150 mM NaCl, 3 mM EDTA, and 0.005% Surfactant P20) was used at a flow rate of 30 μl/min. Chip surfaces were regenerated with the regeneration solution of the respective capture kit. Kinetic parameters were analyzed and calculated in the BIA evaluation program package v4.1 using a flow cell without captured antibody as reference and the 1:1 Langmuir binding model with mass transfer.
Method for cynomolgus monkey CD38: as §1, §2

B1: CD38VH1/CD28sup x CD3mid_ENLQ DKTHT IgG4 FALA (other)
light 1: DIVMTQTPLSLSVTPGQPASISCKSSQSLVHENLQTYLSWYLQKPGQSPQSLIYKVSNRFSGVPDRFSGSGSGTDFTLKISRVEAEDVGVYYCGQGTQYPFTFGSGTKVEIKDKTHTDIQMTQSPSSLSASVGDRVTITCQASQNIYVWLNWYQQKPGKAPKLLIYKASNLHTGVPSRFSGSGSGTDFTLTISSLQPEDIATYYCQQGQTYPYTFGQGTKLEIKDKTHTRTVAAPSVFIFPPSDEQLKSGTASVVCLLNNFYPREAKVQWKVDNALQSGNSQESVTEQDSKDSTYSLSSTLTLSKADYEKHKVYACEVTHQGLSSPVTKSFNRGEC
heavy 1: QVQLVQSGAEVVKPGASVKVSCKASGYTFTSYYIHWVRQAPGQGLEWIGSIYPGNVNTNYAQKFQGRATLTVDTSISTAYMELSRLRSDDTAVYYCTRSHYGLDWNFDVWGKGTTVTVSSDKTHTQVQLVESGGGVVQPGRSLRLSCAASGFTFTKAWMHWVRQAPGKQLEWVAQIKDKSNSYATYYADSVKGRFTISRDDSKNTLYLQMNSLRAEDTAVYYCRGVYYALSPFDYWGQGTLVTVSSDKTHTASTKGPSVFPLAPCSRSTSESTAALGCLVKDYFPEPVTVSWNSGALTSGVHTFPAVLQSSGLYSLSSVVTVPSSSLGTKTYTCNVDHKPSNTKVDKRVESKYGPPCPPCPAPEAAGGPSVFLFPPKPKDTLMISRTPEVTCVVVDVSQEDPEVQFNWYVDGVEVHNAKTKPREEQFNSTYRVVSVLTVLHQDWLNGKEYKCKVSNKGLPSSIEKTISKAKGQPREPQVCTLPPSQEEMTKNQVSLSCAVKGFYPSDIAVEWESNGQPENNYKTTPPVLDSDGSFFLVSKLTVDKSRWQEGNVFSCSVMHEALHNHYTQKSLSLSLG
heavy 2: QVQLVQSGAEVVKPGASVKVSCKASGYTFTSYAMHWVKEAPGQRLEWIGYIYPGQGGTNYNQKFQGRATLTADTSASTAYMELSSLRSEDTAVYFCARTGGLRRAYFTYWGQGTLVTVSSASTKGPSVFPLAPCSRSTSESTAALGCLVKDYFPEPVTVSWNSGALTSGVHTFPAVLQSSGLYSLSSVVTVPSSSLGTKTYTCNVDHKPSNTKVDKRVESKYGPPCPPCPAPEAAGGPSVFLFPPKPKDTLMISRTPEVTCVVVDVSQEDPEVQFNWYVDGVEVHNAKTKPREEQFNSTYRVVSVLTVLHQDWLNGKEYKCKVSNKGLPSSIEKTISKAKGQPREPQVYTLPPCQEEMTKNQVSLWCLVKGFYPSDIAVEWESNGQPENNYKTTPPVLDSDGSFFLYSKLTVDKSRWQEGNVFSCSVMHEALHNHYTQKSLSLSLG
light 2: DIVLTQSPATLSLSPGERATISCRASQSVSSYGQGFMHWYQQKPGQPPRLLIYGASSRATGIPARFSGSGSGTDFTLTISPLEPEDFAVYYCQQNKEDPWTFGGGTKLEIKRTVAAPSVFIFPPSDEQLKSGTASVVCLLNNFYPREAKVQWKVDNALQSGNSQESVTEQDSKDSTYSLSSTLTLSKADYEKHKVYACEVTHQGLSSPVTKSFNRGEC
notes: Trispecific antibody; also called BP # 1
By Kd is commonly meant the concentration at which binding is half-saturated. What is called koff is a measure of how fast the partners let go of each other. A word on the kon: it is a measure of how fast the partners come together. For orientation: EC50 means the midpoint of the concentration-response curve. In the assay with Human CD38-His, B1 registered a Kd of 2.85 nM, a koff of 0.00158 s⁻¹ and a kon of 555000 M⁻¹ s⁻¹. The response with human CD38 was half-maximal at 7.24 nM (EC50). The molecule further gave a 50% effective concentration (EC50) with cynomolgus monkey CD38 of 2.13 nM. A half-maximal effect with Human CD28 (EC50) was put at 0.725 nM. The same molecule had an EC50 with Human CD3 of 6.74 nM. In assay [1], the “EC50 of in vitro killing of OCI-LY19 (CD38+/CD28-) cells, With Dara” value stood at 0.136 nM and the “EC50 of in vitro killing of OCI-LY19 (CD38+/CD28-) cells, With human IgG1” value came out at 0.00566 nM. In assay [2], the “EC50 of in vitro killing of NCI-H929 (CD38+/CD28+) cells, With Dara” value was determined as 0.0298 nM and the “EC50 of in vitro killing of NCI-H929 (CD38+/CD28+) cells, With human IgG1” value was 0.00106 nM.
